Results on eight molecules are retold here after paper PMC8239462, “Molecular chaperone RAP interacts with LRP1 in a dynamic bivalent mode and enhances folding of ligand-binding regions of other LDLR family receptors” (The Journal of Biological Chemistry, 2021).

B1: LRP1 CR.6–8 triplet coexpressed with RAP (RAP+) (domain or fragment)
chain: not shown
notes: human LRP1 complement-type repeats 6–8 (cluster II); also called LRP1 CR; 6–8 (RAP+); source: Sf9, baculovirus (pFastBac-Dual), coexpressed with RAP; purified (HisTrap Excel, Superdex 75, monomer peak)
B2: LRP1 cluster II (CR.3–10), recombinant, secreted from Sf9 cells (domain or fragment)
chain: PQCQPGEFACANSRCIQERWKCDGDNDCLDNSDEAPALCHQHTCPSDRFKCENNRCIPNRWLCDGDNDCGNSEDESNATCSARTCPPNQFSCASGRCIPISWTCDLDDDCGDRSDESASCAYPTCFPLTQFTCNNGRCININWRCDNDNDCGDNSDEAGCSHSCSSTQFKCNSGRCIPEHWTCDGDNDCGDYSDETHANCTNQATRPPGGCHTDEFQCRLDGLCIPLRWRCDGDTDCMDSSDEKSCEGVTHVCDPSVKFGCKDSARCISKAWVCDGDNDCEDNSDEENCESLACRPPSHPCANNTSVCLPPDKLCDGNDDCGDGSDEGELC
notes: also called LRP1 cluster II (8 CRs); cluster II (RAP−)
B3: recombinant human LRP-1 cluster II Fc chimera protein (R&D, 2368-L2) (Fc fusion, UniProt Q07954 852-1182, looked up)
chain: B2 chain
notes: human LRP1 cluster II of the bought Fc chimera; also called commercial LRP1 cluster II; source: bought: R&D (2368-L2)
B4: LRP1 CR.7–8 doublet (coexpression study) (domain or fragment)
chain: not shown
notes: human LRP1 complement-type repeats 7–8 (cluster II); also called LRP1 CR.7–8 (RAP+); LRP1 CR.7–8 (RAP−); source: Sf9, baculovirus (pFastBac-Dual), expressed without RAP or coexpressed with RAP; purified (HisTrap Excel, Superdex 75, monomer peak)
B5: LRP1 CR.6–8 triplet expressed without RAP (RAP−) (domain or fragment)
chain: not shown
notes: human LRP1 complement-type repeats 6–8 (cluster II); also called LRP1 CR.6–8 (RAP−); source: Sf9, baculovirus (pFastBac-Dual), expressed without RAP; purified (HisTrap Excel, Superdex 75, monomer peak)
B6: LRP1 CR.7 singlet (domain or fragment)
chain: not shown
notes: human LRP1 complement-type repeat 7 (cluster II); also called LRP1 CR.7 (RAP+); LRP1 CR.7 (RAP−); source: Sf9, baculovirus (pFastBac-Dual), expressed without RAP or coexpressed with RAP; purified (HisTrap Excel, Superdex 75, monomer peak)
B7: LRP1 CR.6–7 doublet (coexpression study) (domain or fragment)
chain: not shown
notes: human LRP1 complement-type repeats 6–7 (cluster II); also called LRP1 CR; 6–7 (RAP+); LRP1 CR 6–7 (RAP−); source: Sf9, baculovirus (pFastBac-Dual), expressed without RAP or coexpressed with RAP; purified (HisTrap Excel, Superdex 75, monomer peak)
B8: RAP (commercial; R&D, 4296-LR) (natural protein, human)
chain: YSREKNQPKPSPKRESGEEFRMEKLNQLWEKAQRLHLPPVRLAELHADLKIQERDELAWKKLKLDGLDEDGEKEARLIRNLNVILAKYGLDGKKDARQVTSNSLSGTQEDGLDDPRLEKLWHKAKTSGKFSGEELDKLWREFLHHKEKVHEYNVLLETLSRTEEIHENVISPSDLSDIKGSVLHSRHTELKEKLRSINQGLDRLRRVSHQGYSTEAEFEEPRVIDLWDLAQSANLTDKELEAFREELKHFEAKIEKHNHYQKQLEIAHEKLRHAESVGDGERVSRSREKHALLEGRTKELGYTVKKHLQDLSGRISRARHNEL
notes: RAP (LDL-receptor related protein-associated protein), commercial preparation; also called receptor-associated protein; LDL-receptor related protein-associated protein; source: bought: R&D (4296-LR)

Common to all, as to conditions: both partners purified
In assay [1] the target is B8. Put plainly: SPR; Biacore T200; receptor fragment COEXPRESSED with RAP (RAP+; for the LRP1 clusters RAP without HTEL; RAP washed off during purification), monomer, amine-coupled to CM5 at ~250 RU; RAP (0.08–20 nM), FVIII (0.8–200 nM) or ApoE3 (0.78–200 nM) in flow, 30 ul/min, contact 180 s; HBS-P Ca2+ pH 7.4; KD from the steady-state affinity model.
For assay [2], the target named is T1, recombinant Factor VIII (Advate) (UniProt P00451 20-2351).
T1 construct: blood coagulation factor VIII, recombinant drug product Advate; also called FVIII; blood coagulation factor VIII; source: bought: Advate
T1 sequence (P00451 20-2351): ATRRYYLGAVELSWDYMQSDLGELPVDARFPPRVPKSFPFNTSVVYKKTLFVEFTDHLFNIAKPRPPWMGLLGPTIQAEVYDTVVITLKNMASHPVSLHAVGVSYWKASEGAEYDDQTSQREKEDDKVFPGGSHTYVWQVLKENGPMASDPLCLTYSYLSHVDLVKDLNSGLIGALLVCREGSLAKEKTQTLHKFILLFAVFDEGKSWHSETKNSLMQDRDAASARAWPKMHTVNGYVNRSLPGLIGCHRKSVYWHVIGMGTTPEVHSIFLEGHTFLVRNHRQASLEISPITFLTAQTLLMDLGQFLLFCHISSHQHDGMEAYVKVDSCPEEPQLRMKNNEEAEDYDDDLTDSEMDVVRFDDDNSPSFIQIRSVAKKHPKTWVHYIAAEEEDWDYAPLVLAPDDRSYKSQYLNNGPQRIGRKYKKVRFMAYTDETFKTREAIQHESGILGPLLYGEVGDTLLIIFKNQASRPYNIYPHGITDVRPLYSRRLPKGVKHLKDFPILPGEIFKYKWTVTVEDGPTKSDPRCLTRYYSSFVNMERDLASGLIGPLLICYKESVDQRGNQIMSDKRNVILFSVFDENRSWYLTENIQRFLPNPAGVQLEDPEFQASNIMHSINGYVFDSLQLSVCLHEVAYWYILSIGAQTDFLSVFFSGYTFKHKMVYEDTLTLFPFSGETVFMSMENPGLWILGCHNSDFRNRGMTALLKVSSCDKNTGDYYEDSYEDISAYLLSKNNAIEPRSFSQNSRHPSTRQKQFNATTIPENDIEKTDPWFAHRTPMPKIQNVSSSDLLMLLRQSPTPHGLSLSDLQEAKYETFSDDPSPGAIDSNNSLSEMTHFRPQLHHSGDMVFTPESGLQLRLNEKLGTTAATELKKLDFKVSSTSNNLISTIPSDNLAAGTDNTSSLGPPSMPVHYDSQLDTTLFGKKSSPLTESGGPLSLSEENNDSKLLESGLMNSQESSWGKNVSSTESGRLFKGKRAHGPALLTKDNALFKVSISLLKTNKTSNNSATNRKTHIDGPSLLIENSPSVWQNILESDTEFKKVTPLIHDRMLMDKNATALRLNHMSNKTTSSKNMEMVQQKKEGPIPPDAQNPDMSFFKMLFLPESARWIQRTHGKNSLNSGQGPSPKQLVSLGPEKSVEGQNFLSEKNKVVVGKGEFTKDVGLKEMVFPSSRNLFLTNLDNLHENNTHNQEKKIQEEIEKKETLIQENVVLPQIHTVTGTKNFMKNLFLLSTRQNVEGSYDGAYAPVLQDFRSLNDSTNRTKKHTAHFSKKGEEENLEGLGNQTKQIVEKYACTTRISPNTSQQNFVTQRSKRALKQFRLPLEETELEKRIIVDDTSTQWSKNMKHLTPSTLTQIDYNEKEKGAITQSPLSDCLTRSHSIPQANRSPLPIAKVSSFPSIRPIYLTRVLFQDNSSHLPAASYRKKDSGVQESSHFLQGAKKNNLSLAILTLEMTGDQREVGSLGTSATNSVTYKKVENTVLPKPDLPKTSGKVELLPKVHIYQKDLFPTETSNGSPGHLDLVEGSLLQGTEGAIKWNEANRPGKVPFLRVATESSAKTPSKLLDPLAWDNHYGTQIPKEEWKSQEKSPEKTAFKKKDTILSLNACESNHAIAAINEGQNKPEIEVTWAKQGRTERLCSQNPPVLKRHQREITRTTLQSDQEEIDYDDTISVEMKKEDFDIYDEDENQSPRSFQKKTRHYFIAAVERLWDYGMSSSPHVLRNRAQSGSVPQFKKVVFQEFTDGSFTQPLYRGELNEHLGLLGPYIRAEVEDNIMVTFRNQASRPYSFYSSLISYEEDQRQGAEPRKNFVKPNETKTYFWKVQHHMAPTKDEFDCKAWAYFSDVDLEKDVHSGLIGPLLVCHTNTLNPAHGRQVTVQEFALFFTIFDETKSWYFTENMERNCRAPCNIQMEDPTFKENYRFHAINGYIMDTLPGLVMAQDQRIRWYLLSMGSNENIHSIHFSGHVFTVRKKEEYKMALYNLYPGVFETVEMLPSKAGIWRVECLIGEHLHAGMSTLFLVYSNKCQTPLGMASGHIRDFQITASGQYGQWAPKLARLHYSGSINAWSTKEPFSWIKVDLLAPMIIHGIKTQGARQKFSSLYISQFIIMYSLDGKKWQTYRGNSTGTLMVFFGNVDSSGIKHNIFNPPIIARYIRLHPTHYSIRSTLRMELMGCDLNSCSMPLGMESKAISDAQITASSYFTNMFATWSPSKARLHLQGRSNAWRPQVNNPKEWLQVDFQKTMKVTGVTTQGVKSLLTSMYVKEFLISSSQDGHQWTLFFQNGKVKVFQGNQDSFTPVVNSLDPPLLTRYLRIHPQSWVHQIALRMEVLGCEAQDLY
Put plainly: SPR; Biacore T200; LRP1 cluster II coexpressed with RAP having the HTEL signal (RAP-HTEL+), monomer, amine-coupled to CM5 at ~250 RU; RAP (0.08–20 nM) or FVIII (0.8–200 nM) in flow; HBS-P Ca2+ pH 7.4; KD from the steady-state affinity model.

The target in assay [3] is T1, recombinant Factor VIII (Advate). Put plainly: SPR; Biacore T200; receptor fragment expressed WITHOUT RAP (RAP−), monomer, amine-coupled to CM5 at ~250 RU; RAP (0.08–20 nM), FVIII (0.8–200 nM) or ApoE3 (0.78–200 nM) in flow, 30 ul/min, contact 180 s; HBS-P Ca2+ pH 7.4 (10 mM HEPES, 150 mM NaCl, 5 mM CaCl2, 0.005% Tween-20); KD from the steady-state affinity model.
For assay [4] the target is unchanged. Nature of the assay: SPR; Biacore T200; receptor fragment COEXPRESSED with RAP (RAP+; for the LRP1 clusters RAP without HTEL; RAP washed off during purification), monomer, amine-coupled to CM5 at ~250 RU; RAP (0.08–20 nM), FVIII (0.8–200 nM) or ApoE3 (0.78–200 nM) in flow, 30 ul/min, contact 180 s; HBS-P Ca2+ pH 7.4; KD from the steady-state affinity model.
Assay [5] shares this target. Put plainly: SPR; Biacore T200; commercial LRP1 cluster Fc chimeras (R&D) amine-coupled to CM5 at ~250 RU; RAP (0.08–20 nM) or FVIII (0.8–200 nM) in flow; HBS-P Ca2+ pH 7.4; KD from the steady-state affinity model.
For assay [6], the target named is B8. Put plainly: SPR; Biacore T200; receptor fragment expressed WITHOUT RAP (RAP−), monomer, amine-coupled to CM5 at ~250 RU; RAP (0.08–20 nM), FVIII (0.8–200 nM) or ApoE3 (0.78–200 nM) in flow, 30 ul/min, contact 180 s; HBS-P Ca2+ pH 7.4 (10 mM HEPES, 150 mM NaCl, 5 mM CaCl2, 0.005% Tween-20); KD from the steady-state affinity model.
The target of assay [7] is T2, LRP1 cluster III, recombinant, secreted from Sf9 cells (human, UniProt Q07954 2522-2940).
T2 construct: also called cluster III (RAP+); cluster III (RAP−)
T2 sequence (Q07954 2522-2940): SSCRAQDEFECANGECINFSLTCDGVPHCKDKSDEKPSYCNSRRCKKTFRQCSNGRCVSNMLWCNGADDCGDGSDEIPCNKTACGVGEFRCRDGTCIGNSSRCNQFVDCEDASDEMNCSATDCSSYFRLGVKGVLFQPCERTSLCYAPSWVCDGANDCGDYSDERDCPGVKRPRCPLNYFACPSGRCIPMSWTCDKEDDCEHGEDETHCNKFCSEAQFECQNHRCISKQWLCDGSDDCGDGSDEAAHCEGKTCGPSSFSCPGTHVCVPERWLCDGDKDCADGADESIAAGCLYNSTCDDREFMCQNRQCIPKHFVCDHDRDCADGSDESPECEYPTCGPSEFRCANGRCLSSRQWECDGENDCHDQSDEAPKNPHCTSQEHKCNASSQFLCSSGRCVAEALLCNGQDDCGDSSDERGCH
Nature of the assay: SPR; Biacore T200; receptor fragment COEXPRESSED with RAP (RAP+; for the LRP1 clusters RAP without HTEL; RAP washed off during purification), monomer, amine-coupled to CM5 at ~250 RU; RAP (0.08–20 nM), FVIII (0.8–200 nM) or ApoE3 (0.78–200 nM) in flow, 30 ul/min, contact 180 s; HBS-P Ca2+ pH 7.4; KD from the steady-state affinity model.

Several values for one entry are separate records, joined by “and”; a condition that tells them apart may be missing. Identical values can stand only once.

In the case of B1, binding in assay [1] was put at a Kd of 2.8 nM.
Take B2: the Kd in assay [2] is 37 nM; in assay [3], 244 nM and 192 nM; in assay [4], 25 nM and 42 nM.
Take B3: in assay [5], the Kd amounted to 450 nM.
For B4, the affinity in assay [1], expressed as Kd, was 3.1 nM.
Consider B5, for which the dissociation constant Kd in assay [6] came out at 2.9 nM.
B6: the values for the dissociation constant Kd in assay [6] and in assay [1] were 43.7 nM and 34.9 nM, respectively.
The corresponding values for B7 are 3.9 nM and 3.8 nM.
Take B8: the Kd in assay [7] came out at 2 nM.
